Data published in patent US20060234906A1, “Structure of a complex of retinoblastoma protein bound to e2f, and uses thereof” (priority 2002, published 2006).
Residues, ends and D or L forms follow the SMILES beside them. *: point of attachment. 5FAM = O=C1OC2(c3ccc(O)cc3Oc3cc(O)ccc32)c2ccc(C(=O)*)cc21

What was measured:
pRb = target: T1, pRb (Homo sapiens, UniProt P06400); assay: Fluorescence polarization titration binding of fluoro-labelled peptides with pRb
T1 sequence (P06400 373-771 limits assumed): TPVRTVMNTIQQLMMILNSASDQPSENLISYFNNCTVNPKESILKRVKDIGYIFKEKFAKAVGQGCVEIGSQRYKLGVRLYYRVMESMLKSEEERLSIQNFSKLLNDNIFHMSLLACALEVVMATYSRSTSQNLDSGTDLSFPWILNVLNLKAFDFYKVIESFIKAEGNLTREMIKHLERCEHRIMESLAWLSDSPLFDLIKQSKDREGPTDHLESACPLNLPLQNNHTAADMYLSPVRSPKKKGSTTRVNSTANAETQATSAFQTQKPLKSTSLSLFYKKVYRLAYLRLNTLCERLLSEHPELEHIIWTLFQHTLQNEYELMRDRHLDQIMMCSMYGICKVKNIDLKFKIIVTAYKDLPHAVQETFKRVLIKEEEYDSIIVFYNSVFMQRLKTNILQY
Excerpt: Synthetic peptides were synthesised and fluoro-tagged using either N-terminal labelling with 5 carboxyfluorescein succinimidyl ester or cysteine labelling with single isomer tetramethylrhodamine-5-maleimide. […] Fluorescein fluorescence measured at λexcite=485 and λemit=520 nm
Rhodamine fluorescence measured at λexcite=545 and λemit=580 nm
Measurements were made using BMG Fluorostar plate reader fitted with polarization optic. […] Data were fitted to a one site binding model using Graphpad prism.
pRb titration curves were performed in 96-well black plates, in a total reaction volume of 100 μL. Doubling dilutions from 10 μM stock of pRb were made in binding buffer (50 mM Tris HCl, pH7.0, 100 mM NaCl, 10 mM DTT, 0.05% NP-40) and 80 μL added in triplicate to wells. 20 μL of 2 μM fluoro-peptide was added and pipetted up and down to mix. The plate was read after 1 hr incubation at room temperature.

RbAB = target: T2, RbAB (Homo sapiens, UniProt P06400); assay: RbAB
T2 construct: residues 372 to 589 of the A domain and 636 to 787 of the B domain; GST (with Prescission protease site) (N, cleaved yes); engineered thrombin site (LVPRGS) at the A-domain end of the A-B linker (C, cleaved yes); engineered thrombin site (LVPRGS) at the B-domain end of the A-B linker (N, cleaved yes); made in house; host or cells: E. coli
T2 sequence (P06400 whole entry, looked up): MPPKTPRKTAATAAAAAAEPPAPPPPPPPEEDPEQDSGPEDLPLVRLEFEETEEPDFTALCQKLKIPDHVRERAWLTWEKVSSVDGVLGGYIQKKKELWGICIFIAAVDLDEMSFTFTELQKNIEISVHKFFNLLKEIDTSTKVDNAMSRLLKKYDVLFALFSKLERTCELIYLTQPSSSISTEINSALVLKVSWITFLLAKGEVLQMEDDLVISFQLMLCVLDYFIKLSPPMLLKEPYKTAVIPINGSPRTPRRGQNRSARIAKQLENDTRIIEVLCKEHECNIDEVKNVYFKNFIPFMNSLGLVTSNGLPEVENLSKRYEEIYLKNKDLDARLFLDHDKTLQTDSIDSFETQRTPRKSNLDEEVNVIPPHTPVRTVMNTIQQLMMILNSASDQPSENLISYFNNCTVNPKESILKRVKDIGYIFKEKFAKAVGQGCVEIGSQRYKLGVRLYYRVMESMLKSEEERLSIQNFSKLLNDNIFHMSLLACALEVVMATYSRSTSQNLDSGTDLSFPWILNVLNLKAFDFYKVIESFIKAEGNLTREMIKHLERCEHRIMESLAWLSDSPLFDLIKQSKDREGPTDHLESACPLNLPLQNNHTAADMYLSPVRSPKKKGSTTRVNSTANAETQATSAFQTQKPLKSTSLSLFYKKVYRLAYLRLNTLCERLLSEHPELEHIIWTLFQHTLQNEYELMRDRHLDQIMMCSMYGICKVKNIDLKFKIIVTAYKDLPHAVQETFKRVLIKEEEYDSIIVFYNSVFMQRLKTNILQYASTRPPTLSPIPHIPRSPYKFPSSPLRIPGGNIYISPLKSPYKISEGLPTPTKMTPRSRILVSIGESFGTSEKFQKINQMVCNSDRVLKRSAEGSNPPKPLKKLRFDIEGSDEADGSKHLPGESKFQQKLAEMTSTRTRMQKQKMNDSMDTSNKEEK
Excerpt: (§1) Table printed on a drawing sheet, FIG. 2B
(§2) The patent's description of the figure: FIG. 2.
(§3) First copying reader's note: Binding constants of E2F fragments to the Rb constructs RbAB and RbABC; the error is printed in the same cell as the value.
Where the first naming reader finds the target: head: RbAB

RbABC = target: T3, RbABC (Homo sapiens, UniProt P06400); assay: RbABC
T3 construct: His6-RbABC (RESIDUES 380-929); made in house; host or cells: E. coli
T3 sequence (P06400 whole entry, looked up): T2 sequence (P06400 whole entry, looked up)
Excerpt: as §1, §2, §3
Where the first naming reader finds the target: head: RbABC

[1] = target: T4, recombinant pRb A/B domains with E2F(409-426) peptide (Homo sapiens, UniProt P06400); assay: Fluorescence polarization screen (384-well), fluorescein-E2F with pRb, screen controls; format: binding; details: 1 μM pRb, 0.4 μM fluorescein-E2F
T4 sequence (P06400 373-771 limits assumed): T1 sequence (P06400 373-771 limits assumed)
Excerpt: Based on the crystal structure defined by the atomic co-ordinates in Annex 1, an FP screen was configured for the interaction of recombinant pRb A/B domains with E2F(409-426) peptide (see FIG. 1B). In addition, a second peptide binding site E7, see FIG. 1B), distant from the E2F binding pocket, was utilized as an internal control for non-specific inhibitors. Fluorophores in the form of fluorescein and rhodamine labelled peptides were synthesised and were used in a primary screen and hit confirmation.
The assay was optimised in 384-well black-plates (Matrix) and automated using a Beckman Fx liquid handling robot. 1 μM pRb in 50 mM Tris HCl, pH7.0, 100 mM NaCl, 10 mM DTT, 0.05% NP-40 was mixed with 40 μM compound (4% DMSO) and 0.4 μM fluorescein-E2F (final concentrations).
Polarized and depolarized signal from fluorescein-E2F with and without pRb present are shown in FIG. 5 (solid and open circles respectively). Specific disruption of binding by E2F protein and peptide are also shown. […] Addition of unlabelled-E2F at a concentration which gave 50% inhibition is clearly separated from the control populations. Hits were identified as compounds which reduced the polarization signal to less than mean-3sd of the fluorescein-E2F: pRb control.

Molecule `CC(C)C[C@H](NC(=O)[C@H](CCC(N)=O)NC(=O)[C@H](CCC(=O)O)NC(=O)[C@H](Cc1ccc(O)cc1)NC(=O)[C@H](CS)NC(=O)[C@H](Cc1ccc(O)cc1)NC(=O)[C@H](CC(C)C)NC(=O)[C@H](CC(=O)O)NC(=O)c1ccc2c(c1)C(=O)OC21c2ccc(O)cc2Oc2cc(O)ccc21)C(=O)N[C@@H](CC(N)=O)C(=O)O` [Fluorescein-E7, N-terminal amide linkage Scarboxyfluorescein-E7, nonomer] (5FAM-DLYCYEQLN-OH; C-terminus assumed) has a Kd (pRb) of 130 ± 20 nM.

“E2F(380-437): Synthetic peptide of E2F residues 380-437 (ADSLLEHVREDFSGLLPEEFISLSPPHEALDYHFGLEEGEGIRDLFDCDFGDLTPLDF; UniProt Q01094 380-437, looked up, fragment)” showed a Kd (RbAB) of 160 ± 10 nM and a Kd (RbABC) of 100 ± 10 nM.

B1: E2F protein: E2F protein added as screen control that specifically disrupts binding; probably E2F(243-437) (protein, UniProt Q01094 243-437, looked up, fragment)
chain: LAYVTCQDLRSIADPAEQMVMVIKAPPETQLQAVDSSENFQISLKSKQGPIDVFLCPEETVGGISPGKTPSQEVTSEEENRATDSATIVSPPPSSPPSSLTTDPSQSLLSLEQEPLLSRMGSLRAPVDEDRLSPLVAADSLLEHVREDFSGLLPEEFISLSPPHEALDYHFGLEEGEGIRDLFDCDFGDLTPLDF
In the case of B1, the “displacement of Fl-E2F from pRb (screen control)” value [1] is reported as “completely displaces F1-E2F”.
